The values that follow come from patent publication US20100173005A1, “MICROPARTICLE FORMULATIONS FOR SUSTAINED-RELEASE OF BIOACTIVE COMPOUNDS” (POWDER PHARMACEUTICALS INCORPORATED, priority 1999, published 2010).

Series [1] is described as follows: Sustained release of lysozyme from sulfated dextran hydrogel beads: PBS wash then high salt elution, UV detection. It counts as physicochemical. The source says:
A preparation of cross-linked, sulfated dexan affinity chromatography resin beads were obtained from a commercial source (Sigma. St, Louis, Mo.). More particularly, 4% cross-linked sulfated beaded dextran was obtained as a lyophilized powder stabilized in lactose. The sulfate ligand will bind with a charged guest substance (e.g. a peptide or protein) at low salt concentration. This binding is reversible and the bound guest can be desorbed at a high salt concentration.
In the study, lysozyme (Sigma) was loaded into the beads using the techniques described in commonly held International Application No. PCT/GB00/00349.
Particularly, each gram of the sulfated dextran beads was washed with approximately 3×500 ml deionized water. Excess water was removed by vacuum filtration. A loading solution was prepared by dissolving 4.00 g lysozyme in 200 ml deionized water, yielding a 20 mg/ml solution. The loading solution was added to the hydrated dextran beads at a 1:1 ratio to provide a suspension. The suspension was stirred for one hour, and excess solution was drained from the hydrated beads. The loaded beads were then divided into two portions. The first portion (5.7 cc, experimental) was placed into a column (Econo column, BioRad, Hercules, Calif.) and washed with a phosphate buffered saline (PBS) solution (pH 7.4) for 19.6 hours, then eluted with 21.2 ml of a high salt elution buffer (1.0M ammonium sulfate, 50 mM sodium phosphate, pH 7.2). […] The amount of lysozyme released from the dextran beads during the PBS wash was determined by comparison against the amount of lysozyme eluted by the elution solution for both the experimental and the control portions.
Lysozyme concentration was determined using a UV detector (BioRad UV detector). A standard curve (UV absorption vs lysozyme concentration) was prepared by measuring the UV absorption of stock lysozyme solutions at different concentration ranging from 1 mg/ml to 4 mg/ml, Concentrations of the unknowns were then determined by extrapolation of the standard curve. […]

Series [2] in a line: Repeat sustained release study of lysozyme from sulfated dextran beads: PBS elution at 0.84 ml/min, HPLC analysis. The series is classed as physicochemical. As for the experimental part:
The sustained release study described in the above Example was repeated except, in this instance, a different elution rate was used to determine if the rate of release of the lysozyme guest substance from the dextran is a function of the flow rate of the elution buffer.
More particularly, sulfated dextran beads were loaded with lysozyme as described in the above Example. The specifics of the loading were as follows: 42.4 g of the hydrated dextran beads was stirred in 100 ml of lysozyme solution (to yield a 20.11 mg/ml solution) for 1 hour. The loaded beads were then loaded into a column as described above for a further sustained release study.
For the PBS elution, the PBS wash (pH 7.4) was used to elute lysozyme from the beads at a flow rate of 0.84 ml/min for 20.6 hours. The eluted solution was collected in fractions, and the elution fractions were analyzed with HPLC for lysozyme concentration using a Vydac C18 HPLC column. For the high-salt elution, the remaining lysozyme in the beads was then eluted with the high-salt elution buffer at a rate of […].
The amount of lysozyme protein that eluted with the PBS wash was 39.51 mg and, from the high salt elution, the amount of lysozyme was 40.34 mg. Accumulated percent lysozyme release (Y) was plotted against elution time (X).

As to lysozyme, the “amount of lysozyme eluted in the elution buffer” value in series [1] (control portion, immediately eluted with high salt elution buffer alone) is recorded as 10.5 mg/ml wet beads; in series [1] (experimental portion (PBS washed beads, 19.6 hours), high salt elution buffer 1.0M ammonium sulfate, 50 mM sodium phosphate, pH 7.2), 3.72 mg/ml beads. Moreover, in series [1] (experimental portion, PBS pH 7.4 wash for 19.6 hours, UV detector), the “amount of lysozyme released during the PBS wash” value is “not detectable”. Also, in series [2] (PBS elution at 0.84 ml/min, line equation Y=1.49X+0.242), the “release rate (slope of accumulated percent release vs elution time)” value amounted to 1.49 %/hr. Besides, the “amount of lysozyme protein eluted with the PBS wash” value in series [2] (PBS pH 7.4, flow rate 0.84 ml/min for 20.6 hours, HPLC) was 39.51 mg. The “amount of lysozyme from the high salt elution” value in series [2] (remaining lysozyme eluted with high-salt elution buffer after the PBS wash) is 40.34 mg.
